Laboratory results published in the supplement of paper PMC9732359.
± gives the uncertainty stated by the source.

Assay: protein stability index of a GFP-peptide fusion (yeast GPS) (PSI 1-4); higher = more stable; sorted into four equal gates, so the index is relative within each strain
Summary of the method: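 Plasmids isolated from each sorting gate were PCR-amplified and Illumina-sequenced, and barcodes assigned the reads to strains. The gates, four of equal size, were set by GFP/Cherry fluorescence ratio on mid-log cultures in leucine-free medium. These cultures were yeast carrying a pooled library of tiled 17-residue yeast protein peptides fused downstream of GFP on a plasmid that also expresses Cherry. The protein stability index is the sum of every gate's read frequency times its gate number.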

Sequence | protein stability index (doa10∆) | protein stability index (pdr5∆) | protein stability index (san1∆) | protein stability index (ubr1∆)
DFYVVMNRPGARVTRRK [RPL11A] | 3.22 ± 0.17 | 2.86 ± 0.15 | 3.28 ± 0.061 | 3.32 ± 0.11
WKTAEEVSALVRSLPKE [PRP8] | 1.21 ± 0.068 | 1.36 ± 0.079 | 1.28 ± 0.12 | 1.08 ± 0.051
MVPKRSTIITKAINQEL [YCS4] | 1.39 ± 0.1 | 1.88 ± 0.062 | 1.58 ± 0.09 | 2.24 ± 0.068
LDNLTEDPNSAAFDEVE [DIS3] | 3.19 ± 0.085 | 3.3 ± 0.072 | 3.22 ± 0.041 | 3.12 ± 0.043
GNGNVSESDIINNLPPE [YCG1] | 2.85 ± 0.24 | 2.85 ± 0.13 | 2.95 ± 0.27 | 2.78 ± 0.15
VVYHPSNNELVRTNTLT [RPS8A] | 2.647 ± 0.019 | 2.396 ± 0.018 | 2.455 ± 0.019 | 2.647 ± 0.014
FGNSLICEDPETAKKIT [SMC2] | 2.82 ± 0.1 | 2.74 ± 0.084 | 2.62 ± 0.24 | 2.91 ± 0.075
NSSEEDKKKGQNVTSET [ITC1] | 3.5 ± 0.14 | 3.31 ± 0.17 | 3.06 ± 0.17 | 3.29 ± 0.11
YDRHQSSSKQQSRLFIN [SMC4] | – | – | – | 3.31 ± 0.2
LAGKRGPKSGSTMGTPT [PGD1] | 3.35 ± 0.061 | 2.95 ± 0.05 | 2.6 ± 0.096 | 3.19 ± 0.046
LATLLGHNDWVSQVRVV [ASC1] | 1.94 ± 0.085 | 2.37 ± 0.082 | 1.89 ± 0.1 | 1.8 ± 0.047
YLKVSEEEIKKFDSRIR [PRP8] | 2.9 ± 0.072 | 3.08 ± 0.083 | 2.78 ± 0.066 | 3.15 ± 0.061
RRWNKLCTLNDSKGSLY [YGL100W/SEH1] | 3.31 ± 0.078 | 3.24 ± 0.072 | 2.91 ± 0.078 | 3.1 ± 0.046
SYLSETLISRISSLFTI [YML103C/NUP188] | 1.77 ± 0.062 | 1.89 ± 0.064 | 1.5 ± 0.074 | 2.05 ± 0.083
PRMIELMEFLCVVSTDS [ECM29] | 2.04 ± 0.064 | 1.66 ± 0.066 | 1.64 ± 0.1 | 1.4 ± 0.054
CAEGIFVVKLDTVDRLI [GAL11] | 2.89 ± 0.12 | 3.13 ± 0.11 | 3.02 ± 0.13 | 2.62 ± 0.092
SLKCTDPYELKGEVVLV [ITC1] | 2.59 ± 0.2 | 3.1 ± 0.24 | 2.44 ± 0.2 | 2.96 ± 0.13
VDNENNKPAIKEDSTIQ [SWI3] | 2.84 ± 0.063 | 2.97 ± 0.069 | 3.08 ± 0.058 | 3.12 ± 0.062
ERGLKVKEYQLRDRNFS [RPL11A] | – | 2.63 ± 0.2 | – | –
GIKVLPETCLFVSYFGK [YML103C/NUP188] | 2.7 ± 0.055 | 2.42 ± 0.038 | 2.44 ± 0.074 | 2.68 ± 0.039
EAQANLLTAKHGMTLRE [RPO21] | 2.98 ± 0.18 | 3.11 ± 0.099 | 3.14 ± 0.063 | 2.8 ± 0.11
NDFNDLNIDWSTTGDNG [MED2] | 2.84 ± 0.05 | 2.86 ± 0.051 | 2.84 ± 0.046 | 2.73 ± 0.042
TDLENSSLFQEKLLETN [ECM29] | 2.52 ± 0.096 | 2.46 ± 0.079 | 2.49 ± 0.056 | 2.68 ± 0.057
ARDIISHNFQNAIFQME [PCI8] | 2.79 ± 0.063 | 2.94 ± 0.069 | 2.75 ± 0.046 | 2.92 ± 0.05
DACPLDNQPWQLARCGR [HRT1] | 2.76 ± 0.068 | 2.56 ± 0.067 | 2.03 ± 0.077 | 2.61 ± 0.059
MSTELTVQSERAFQKQP [RPS11A] | 3.13 ± 0.1 | 2.97 ± 0.099 | 2.98 ± 0.11 | 2.75 ± 0.076
VCMHCGKLLLDEHNELM [RPO21] | – | 2.94 ± 0.18 | 2.77 ± 0.28 | 3.14 ± 0.084

Sequence | protein stability index (doa10∆) | protein stability index (pdr5∆) | protein stability index (san1∆) | protein stability index (ubr1∆)
IMNLITNEPCGAQFSRS [RPN4] | – | 3.1 ± 0.3 | – | 2.96 ± 0.17
NDAMAGGFTAYGGADYG [RPO21] | 1.78 ± 0.083 | 1.91 ± 0.066 | 1.92 ± 0.1 | 1.86 ± 0.074
APSANQGDEALSVDDIR [RTT102] | 3.15 ± 0.093 | 3.33 ± 0.1 | 2.98 ± 0.088 | –
NTNPSPLKTQTKNGTPN [GAL11] | 2.91 ± 0.059 | 2.9 ± 0.05 | 2.58 ± 0.049 | 2.94 ± 0.04
EKYEDEDEEKILDNTEN [DSN1] | 3.52 ± 0.15 | 3.16 ± 0.1 | 3.01 ± 0.26 | 3.21 ± 0.091
GDRGALARASGNYVIII [RPL2A] | 2.82 ± 0.11 | 2.81 ± 0.11 | 2.84 ± 0.11 | 2.75 ± 0.14
VNARDIPPLNKSLAMEH [CSN12] | 2.77 ± 0.23 | 2.67 ± 0.17 | 2.61 ± 0.19 | –
LNYTVINFKSREAIRPG [AAR2] | 3.07 ± 0.069 | 3.09 ± 0.068 | 3.15 ± 0.058 | 3.17 ± 0.042
KLYQTEPSGIYSSWSAQ [PRE6] | 2.63 ± 0.084 | 2.15 ± 0.11 | 2.87 ± 0.11 | 1.46 ± 0.054
KEQADIYAKQQEQLKQM [ARP7] | 1.75 ± 0.065 | 2.25 ± 0.086 | 1.78 ± 0.14 | 2.88 ± 0.066
SDKDATTDGKNDDEEEE [RPN1] | – | 3.33 ± 0.26 | – | –
GMKVKADRDESSPYAAM [RPS14B] | 1.32 ± 0.067 | 1.09 ± 0.12 | 1.14 ± 0.22 | 1.2 ± 0.089
SSTYYNLDYLFELIELV [NUT1] | – | 2.62 ± 0.17 | 2.78 ± 0.15 | –
MLNLIDDVKNILNAKYT [RPN6] | 2.85 ± 0.18 | 2.57 ± 0.09 | 2.86 ± 0.061 | 2.86 ± 0.068
SFGNREEFINKLVKSMN [RPL7A] | 2.52 ± 0.11 | 2.6 ± 0.11 | 2.29 ± 0.18 | 2.76 ± 0.071
VRCVNCSKSIPKDKAIK [RPS26A] | 2.77 ± 0.067 | 3 ± 0.071 | 2.77 ± 0.063 | 2.82 ± 0.044
NGQPLNQNFSLTFQPQQ [GRR1] | 3.09 ± 0.051 | 3.12 ± 0.047 | 3.04 ± 0.051 | 3.01 ± 0.043
QLDSKLMVFNDDTKNQD [YGR119C/NUP57] | 2.93 ± 0.062 | 2.75 ± 0.054 | 2.6 ± 0.057 | 2.91 ± 0.045
RAGMTHEDEKLIPTIFR [PRP8] | 3.19 ± 0.085 | 3.28 ± 0.076 | 3.15 ± 0.049 | 3.19 ± 0.05
EDEEEEEEVTDQLEDLR [QCR6] | – | 3.52 ± 0.28 | 3.47 ± 0.083 | 3.25 ± 0.089
LFQDGSASLHTRSLKYG [RRP4] | 2.48 ± 0.085 | 2.76 ± 0.088 | 2.59 ± 0.1 | 2.88 ± 0.059
ASSTPIPVLGKPTDATG [YOR098C/NUP1] | 2.43 ± 0.055 | 2.88 ± 0.055 | 2.6 ± 0.05 | 2.42 ± 0.036
SHSLALNEITNSKVNKL [DSN1] | 2.33 ± 0.04 | 2.57 ± 0.04 | 2.48 ± 0.035 | 2.54 ± 0.033
NVGDNNSTASSSNISPE [ARP7] | 2.83 ± 0.089 | 3.11 ± 0.062 | 3.04 ± 0.055 | 3.08 ± 0.045
FPPPSVAARAEILRIHS [RPT6] | 1.72 ± 0.074 | 2.5 ± 0.085 | 1.54 ± 0.12 | 1.74 ± 0.046
ATYSNEFKCMSVITAQQ [YGL100W/SEH1] | 1.75 ± 0.053 | 1.48 ± 0.042 | 1.46 ± 0.085 | 2.01 ± 0.031
NRSEQNGQEQQGPVKNT [RGR1] | 3.26 ± 0.16 | 3.39 ± 0.14 | 3.11 ± 0.11 | 3.55 ± 0.22
